Test results reported in article PMC7954794, “Protein context shapes the specificity of SH3 domain-mediated interactions in vivo” (Nature Communications, 2021).

B1: Myo5 (protein, UniProt Q04439 1-1219, looked up)
Myosin-5: MAILKRGARKKVHQEPAKRSANIKKATFDSSKKKEVGVSDLTLLSKISDEAINENLKKRFLNATIYTYIGHVLISVNPFRDLGIYTDAVMNEYKGKNRLEVPPHVFAIAESMYYNMKSYNENQCVIISGESGAGKTEAAKRIMQYIAAASSTHTESIGKIKDMVLATNPLLESFGCAKTLRNNNSSRHGKYLEIKFNNQFEPCAGNITNYLLEKQRVVSQIKNERNFHIFYQFTKGASDAYRQTFGVQKPEQYVYTAAAGCISAETIDDLQDYQETLKAMRVIGLGQEEQDQIFRMLAAILWIGNVSFIENEEGNAQVRDTSVTDFVAYLLQIDSQLLIKSLVERIMETNHGMKRGSVYHVPLNIVQADAVRDALAKAIYNNLFDWIVSRVNKSLQAFPGAEKSIGILDIYGFEIFEHNSFEQICINYVNEKLQQIFIQLTLKSEQETYEREKIQWTPIKYFDNKVVCDLIEARRPPGIFAAMNDSVATAHADSNAADQAFAQRLNLFTTNPHFDLRSNKFVIKHYAGDVTYDIDGITDKNKDQLQKDLVELIGTTTNTFLATIFPDTVDRESKRRPPTAGDKIIKSANDLVETLSKAQPSYIRTIKPNETKSPNDYDDRQVLHQIKYLGLQENVRIRRAGFAYRQVFEKFVERFYLLSPHCSYAGDYTWQGDTLDAVKYILQDSSIPQQEYQLGVTSVFIKTPETLFALEHMRDRYWHNMAARIQRAWRRFLQRRIDAATKIQRTIRERKEGNKYEKLRDYGTKVLGGRKERRSMSLLGYRAFMGDYLSCNESKSKGAYIKRQVSIKEKVIFSIHGEALHTKFGRSAQRLKKTFLLTPTTLYIVGQTLVQNAMTYTQDYKIDVRNIQAVSLTNLQDDWVAIKLASSGQPDPLINTYFKTELITHLKRLNDKIQIKIGSAIEYQKKPGKLHSVKCQINESAPKYGDIYKSSTISVRRGNPPNSQVHKKPRKKSSISSGYHASSSQATRRPVSIAAAQHVPTAPASRHSKKPAPPPPGMQNKAATRRSVPNPASTLTASQSNARPSPPTAATRATPAATPAAAAMGSGRQANIPPPPPPPPPSSKPKEPMFEAAYDFPGSGSPSELPLKKGDVIYITREEPSGWSLGKLLDGSKEGWVPTAYMKPHSGNNNIPTPPQNRDVPKPVLNSVQHDNTSANVIPAAAQASLGDGLANALAARANKMRLESDDEEANEDEEEDDW
B2: Lsb3 (protein)
chain: MGINNPIPRSLKSETKKAAKILASFVKPNQVFGADQVIPPDVLKRAKGLAIITILKAGFLFSGRAGSGVIVARLKDGTWSAPSAIAMAGAGAGGMVGIELTDFVFILNTQDAVKSFSEFGTITLGGNVSVSAGPLGRSAEAAASASAGGVAAVFAYSKSKGLFAGVSVEGSAIIERREANRKFYGDNCTAKMILSGRIRPPPAVDPLFRVLESRAFNYRPSNGGRGSFDDDEDDYYDDDDYYNDIPSSFSSTDASSTRPNTRSTRRRAQSGSRYTFDDDDDDDDYGTGYSRNSRLAPTNSGGSGGKLDDPSGASSYYASHRRSGTAQSRARSSRNRWADDEYDDYDDDYESGYRRGNGRDRTKDREVDDLSNRFSKSRISSASTPQTSQGRFTAPTSPSTSSPKAVALYSFAGEESGDLPFRKGDVITILKKSDSQNDWWTGRVNGREGIFPANYVELV
modifications: left off: DHFR F[3], C-terminal, kept
B3: Lsb1 (protein, UniProt P53281 2-241, looked up)
LAS seventeen-binding protein …: SASLVNRSLKNIRNELEFLKESNVISGDIFELINSKLPEKWDGNQRSPQNADTEEYVEALYDFEAQQDGDLSLKTGDKIQVLEKISPDWYRGKSNNKIGIFPANYVKPAFTRSASPKSAEAASSSTVSRPSVPPPSYEPAASQYPSQQVSAPYAPPAGYMQAPPPQQQQAPLPYPPPFTNYYQQPQQQYAPPSQQAPVEAQPQQSSGASSAFKSFGSKLGNAAIFGAGSAIGSDIVNSIF
B4: Hof1 (protein, UniProt Q05080 1-669, looked up)
Cytokinesis protein 2: MSYSYEACFWDPNDNGVNILLGHISQGIRSCDSMILFFKQRSELEKDYARRLGAITGKLDKDIGTNMDYGKLNETFNVVLSVEKARAQSHSKQSEILFRQIYTDTKAFAANLQARYTTLSGKIERLRMDKFNKKKGCEVLQKKLQDAQIRFRDLQLNENNMIGAKRVEHNKRELLKWESNSQEYKVQLDVLKQEYKASQKFWIHEWAQLSCELQEMENARISFLQSKLQQFATSSMETYILEQTKMDMLTNHLNSFTAADEISTFSKENGTGRLKHKTSKGDMNSSANWAQMSSISTTSKKTESYMDNIRKLSSQLKETENKRKLASIDKYEKPLPSPEVTMATQFRNSTPVIRNETKVVANPTLSLRSSPVQLQSNVDDSVLRQKPDKPRPIVGEEQLKPDEDSKNPDEKGLMVHKRNQSLSSPSESSSSNPTDFSHIKKRQSMESMTTSVSSMANSIDDSQRFAKSWNSSNRKRKSMSHLQVPSSASSRSDDGGRTPNSAHNLNEDDYNTRRDTSTSTILFKPPVAVRGTSRGHTHRQSMIMQDSSNPIEDALYEMERIQSSSKPGTKTGNIMDERGVVRDRGITVTLPIVTSEGFPVIEYAKAMYPLIGNEAPGLANFHKGDYLLITEIVNKDWYKGEVYDNDRIDRNHRIGLIPYNFIQLLHQGL
B5: Hse1 (protein, UniProt P38753 2-452, looked up)
Class E vacuolar …: SSSAIKIRNALLKATDPKLRSDNWQYILDVCDLVKEDPEDNGQEVMSLIEKRLEQQDANVILRTLSLTVSLAENCGSRLRQEISSKNFTSLLYALIESHSVHITLKKAVTDVVKQLSDSFKDDPSLRAMGDLYDKIKRKAPYLVQPNVPEKHNMSTQADNSDDEELQKALKMSLFEYEKQKKLQEQEKESAEVLPQQQQQHQQQNQAPAHKIPAQTVVRRVRALYDLTTNEPDELSFRKGDVITVLEQVYRDWWKGALRGNMGIFPLNYVTPIVEPSKEEIEKEKNKEAIVFSQKTTIDQLHNSLNAASKTGNSNEVLQDPHIGDMYGSVTPLRPQVTRMLGKYAKEKEDMLSLRQVLANAERSYNQLMDRAANAHISPPVPGPALYAGMTHANNTPVMPPQRQSYQSNEYSPYPSNLPIQHPTNSANNTPQYGYDLGYSVVSQPPPGYEQ

These molecules were tested on Abp1 (1xFLAG) (assay: Western blot expression level of Abp1 SH3-swapped baits (Fig. S2A-B)). Conditions: Flag signal relative to Abp1 WT (Abp1-1 to Abp1-4 = 1); sheet FigS2A-B.
Assay type: cell-based, Saccharomyces cerevisiae
Design: Flag (2 bands): unit not given here
Method: Precultures of yeast cells expressing baits fused with the DHFR F[1,2]-FLAG were grown overnight at 30 °C with agitation in synthetic complete medium. The next day, cells were expanded in synthetic complete medium to reach their exponential phase (OD600 of around 1.0), pelleted, and frozen at −80 °C. The equivalent of fifty OD600 of cells was resuspended in ice-cold yeast lysis buffer (10 mM Tris-HCl pH 7.4, 150 mM NaCl, 0.5 mM EDTA (Millipore Sigma), 1% Triton X-100 (Millipore Sigma), and one cOmplete Mini Protease Inhibitor Cocktail (Millipore Sigma) per 10 mL) with […] glass beads (Millipore Sigma) and disrupted at 4 °C by 10 cycles of 2 min vortexing and 2 min cooldown. The equivalent of […] of lysed cells was used for the immunoprecipitation of the bait proteins using FLAG-M2 agarose beads (Millipore Sigma). The beads were incubated with the cell lysates for 120 min at 4 °C with a slow rotation, followed by three washes with the yeast lysis buffer.
Protein extracts and affinity-purified baits from yeast and human lysed cells were migrated on 10% polyacrylamide gels. The separated proteins were then transferred to nitrocellulose membranes. Validation of correct protein loading was done with ponceau staining of the membranes. Before the primary antibody incubations, membranes were blocked in 5% milk. Protein signals were detected on an Amersham Imager 600RGB (GE Healthcare) following the incubation of the membranes with the appropriate HRP-conjugated secondary antibodies and the Clarity Western ECL Substrate (Bio-Rad). The antibodies used in this study are M2-HRP (A8592, Sigma, 1/50,000), rabbit anti-FLAG (F7425, Sigma, 1/1000), PAK (SC-881, Santa Cruz, 1/200), p130cas/BCAR1 (SC-860, Santa Cruz, 1/200), actin (Cell Signaling Technology, 1/2000), anti-mouse HRP (Cell Signaling Technology, 1/10,000) and anti-rabbit HRP (Cell Signaling Technology, 1/10,000). The quantification of the WB signals was performed with the Amersham Imager 600 analysis software (GE Healthcare).

Molecule | Ratio Swap/WT Flag
B1 | 0.7689
B2 | 0.537
B3 | 0.4741
B4 | 1.051
B5 | 0.5073

Same assay, conditions: Western blot Flag signal (2 bands), Abp1 WT, SH3-deleted or SH3-swapped; sheet FigS2A-B

Molecule | Flag (2 bands)
B1 | 82124
B2 | 57357
B3 | 50638
B4 | 112286
B5 | 54180

Each molecule was assayed on Abp1 PPIs (assay: DHFR-PCA of Abp1 SH3-swapped baits (Fig. 2B-D, S2C, S2F)). Conditions: number of interactions of Abp1 carrying the named SH3; sheet FigS2A-B.
Assay type: cell-based, Saccharomyces cerevisiae
Excerpt: Having determined that multiple PPIs require SH3s, we asked whether the latter establish PPI specificity independently from their host proteins by swapping domains (Fig. 2A). Using the second round of genome editing, we individually replaced Abp1 SH3 with the 27 yeast SH3s and 3 human Abp1 orthologs’ SH3s (CTTN, HCLS1, and DBNL, Fig. 2B). The reintroduction of its own SH3 (Abp1SH3 in Abp1) reconstitutes almost perfectly Abp1’s interaction profile (Kendall’s τ = 0.93, Fig. 2B). […] No homologous SH3 domain fully re-establishes the normal Abp1 PPI profile (Fig. 2B and Supplementary Fig. 2C). However, we observe a significant correlation (cophenetic correlation = 0.20, p value = 0.005, Fig. 2C) between the similarity of PPI profiles (Fig. 2B) and the sequence similarity of the SH3s. […] Nonetheless, a subset of SH3-dependent PPIs is only observed with the endogenous domain. For instance, Hua2 and App1, both well-characterized partners of Abp1[14],[18],[19], are only detected when Abp1 contains its own SH3 (WT or swapped via editing). A given SH3 may therefore not be fully replaceable with other paralogous or orthologous domains. This pattern is confirmed by cellular growth phenotypic analyses (Supplementary Fig. 2D, E). PPIs, SH3 sequence similarity, and growth profiles under stress conditions are correlated (Supplementary Fig. 2D, E). This relationship is particularly clear when analyzing growth on media supplemented with hygromycin.
The stuffing of YSC84 SH3 rendered the strain sterile and was therefore not used for this study as the assays require crosses. For genes containing two SH3s (BZZ1 and BEM1), a combination of this first stuffer with a second one ([…]) coding for a highly similar linker ([…]) was used, which allowed targeting each SH3 position independently. The two N-terminal domains of SLA1, which are separated by six nucleotides, were stuffed by a single stuffer. Cells containing pCAS were selected via the G418 resistance cassette from the plasmid on YPD plates (YPD + NAT 100 μg/ml (DHFR F[1,2] selection) + G418 200 µg/mL (Bioshop Canada)). Colonies were randomly selected and grown in YPD media without G418 to allow plasmid loss. The correct insertion of the stuffer was validated by PCR and Sanger sequencing. The SH3-swapped, -shuffled, and -mutated strains were constructed following a second CRISPR–Cas9 editing step with the same procedures. The stuffer sequences were targeted by specific gRNAs (one gRNA per stuffer) and replaced by PCR amplified specific SH3 (with 40 bp homology arms) or libraries of mutated SH3 domains for Deep Mutational Scanning (DMS) with 78 bp flanking homology regions. Validation of the SH3 domain insertions was done as we previously described except for DMS libraries (see below).
The overall DHFR-PCA pipeline is based on Tarassov et al.[43] and the procedures have also been published as a visualized protocol. The screens were performed with robotically manipulated pin tools (BM5-SC1, S&P Robotics Inc.). First, the preys were cherry-picked from 96-well plates to omnitrays in a 384 format on YPD + HPH solid media. Plates were then combined into the 1536 format on YPD + HPH. The array was constituted of 575 preys previously shown to interact physically with at least one SH3-containing protein as reported in BioGRID V3.4.16 along with 40 negative controls. The prey array comprised a border of control strains of two rows and two columns corresponding to the PPI between LSM8-DHFR F[1,2] and CDC39-DHFR F[3]. This double border was used to remove border effects. Preys are present in duplicate at a randomized position in the 1536 array (except for YAL041W which is present four times per array). Baits were crossed with two prey plates, resulting in four independent bait–prey tests for each PPI. Baits were grown in liquid YPD + NAT and then transferred on solid YPD + NAT omnitrays. They were then replicated on YPD + NAT omnitrays in 1536 array format. […]

Molecule | Interactions in Abp1
B1 | 100
B2 | 107
B3 | 106
B4 | 15
B5 | 77
